Assay results taken from patent US20220403025A1.

Target: L1 (DV1-GV4) antigen: soluble heterodimeric γδ TCR in leucine zipper format (TRDV1/TRGV4) (human)
Assay: SPR (MASS-2), IgG captured via protein G (100 nM for TS8.2), L1 as analyte, steady-state 1:1 fit

L1 (DV1-GV4) antigen: soluble heterodimeric γδ TCR in leucine zipper format (TRDV1/TRGV4) (human), sequence (main, as listed by the source): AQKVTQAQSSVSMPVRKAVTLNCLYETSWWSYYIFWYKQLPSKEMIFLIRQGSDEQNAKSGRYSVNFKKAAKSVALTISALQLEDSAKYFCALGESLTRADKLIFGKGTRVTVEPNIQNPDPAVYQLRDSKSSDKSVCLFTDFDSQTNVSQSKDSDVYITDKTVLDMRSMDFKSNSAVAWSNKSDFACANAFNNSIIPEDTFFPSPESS

Kd: 44 nM
Substance: TS8.2 (commercial anti-Vδ1 antibody; Human TCR Vδ1 purified mAb, ThermoFisher TCR1730)
